Values of other authors, collected in article PMC2678197 (Chemistry & biology, 2009).

Target: eotaxin (Homo sapiens, UniProt P51671)
Details: read-out: equilibrium dissociation constant (Kd); binding to eotaxin; ref [26]

Chain of eotaxin (P51671 24-97): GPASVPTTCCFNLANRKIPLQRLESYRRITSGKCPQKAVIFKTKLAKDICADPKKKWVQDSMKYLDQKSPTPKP

Substance: 35-residue non-sulfated peptide: 35-residue non-sulfated peptide corresponding to the complete N-terminal region of CCR3 (MTTSLDTVETFGTTSYYDDVGLLCEKADTRALMAQ; unsulfated; the limits 1-35 are inferred from '35-residue' and 'complete N-terminal region')
- Kd: 80 ± 38 µM
